{
  "source": "paper PMC9747239",
  "about": "“State-selective modulation of heterotrimeric Gαs signaling with macrocyclic peptides” (Cell, 2022)",
  "binders": {"B1": {"name": "Biotinylated Avi-Gαs (WT), residues 7-380 of the short isoform of human Gαs (natural protein)", "chain": "SKTEDQRNEEKAQREANKKIEKQLQKDKQVYRATHRLLLLGAGESGKSTIVKQMRILHVNGFNGDSEKATKVQDIKNNLKEAIETIVAAMSNLVPPVELANPENQFRVDYILSVMNVPDFDFPPEFYEHAKALWEDEGVRACYERSNEYQLIDCAQYFLDKIDVIKQADYVPSDQDLLRCRVLTSGIFETKFQVDKVNFHMFDVGGQRDERRKWIQCFNDVTAIIFVVASSSYNMVIREDNQTNRLQEALNLFKSIWNNRWLRTISVILFLNKQDLLAEKVLAGKSKIEDYFPEFARYTTPEDATPEPGEDPRVTRAKYFIRDEFLRISTASGDGRHYCYPHFTCAVDTENIRRVFNDCRDIIQRMHLRQYELL", "modifications": "biotin on the Avi tag (BirA)", "notes": "human Gαs (GNAS), short isoform, residues 7-380; Loaded with GNP (GppNHp) or GDP; the nucleotide state is told by the assay; also called Gαs/GNP; Gαs/GDP; source: E. coli BL21(DE3), purified (TALON, Drice cleavage, BirA biotinylation, Source-15Q, gel filtration); not shown: Avi tag, N-terminal, kept; His6, N-terminal, cleaved"}},
  "molecular_target": "T1, His-Gβ1/Gγ2(C68S) (human, UniProt P62873 1-340; P59768 1-71, C68S)",
  "T1 construct": "human Gβ1 (GNB1); human Gγ2 (GNG2) with C68S; also called Gβγ; Gβγ(C68S); source: Sf9, baculovirus (pFastBac Dual), co-expressed, purified (TALON, gel filtration); not shown: His6, N-terminal, kept",
  "T1 sequence (P62873 whole entry, chain 1 of 2)": "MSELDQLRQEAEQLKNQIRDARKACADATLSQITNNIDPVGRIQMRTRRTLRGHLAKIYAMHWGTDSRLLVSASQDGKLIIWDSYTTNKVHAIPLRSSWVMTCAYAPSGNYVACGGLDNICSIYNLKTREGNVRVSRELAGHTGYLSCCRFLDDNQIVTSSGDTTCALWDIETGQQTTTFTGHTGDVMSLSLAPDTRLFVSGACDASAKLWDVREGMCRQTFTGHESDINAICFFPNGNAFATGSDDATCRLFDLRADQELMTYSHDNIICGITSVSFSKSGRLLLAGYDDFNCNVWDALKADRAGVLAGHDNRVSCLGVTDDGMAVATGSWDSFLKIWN",
  "T1 sequence (P59768 whole entry C68S, chain 2 of 2)": "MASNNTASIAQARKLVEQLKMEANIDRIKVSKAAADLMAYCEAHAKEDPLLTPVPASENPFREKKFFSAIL",
  "assay": "AlphaScreen or HTRF; TR-FRET Gα/Gβγ interaction assay: 4 nM biotinylated avi-Gα with streptavidin XL665, 2 nM His-Gβ1/γ2(C68S) with anti-6His-Tb cryptate, cyclic peptide 0-10,000 nM; 1X PBS 7.4, 2 mM DTT, 0.1% BSA, 2 mM MgCl2, 0.05% Tween, 0.5 mM GDP, 2 h at room temperature",
  "conditions": "both partners purified",
  "data": [
    {"binder": "B1", "values": [
      {"measurement": "binding result", "value": "binds"}
    ]}
  ]
}
